{
  "source": "patent US20150240222A1",
  "key": {"[1]": {"biological_target": "FITC-casein", "assay": "fluorescence polarization, 6 nM FITC-casein with 0-5 uM Hsp104, 2 mM ATPgS, 25 C"}, "[2]": {"biological_target": "FITC-casein", "assay": "cell-based or functional assay"}},
  "note": "pKd: −log10 of the molar value.",
  "data": [
    {"substance": "Hsp104A503V (from UniProt P31539 1-908)", "values": [
      {"measurement": "pKd", "setting": "[1]", "result": 7.10}
    ]},
    {"substance": "HAPA503V (from UniProt P31539 1-908)", "values": [
      {"measurement": "Km of FITC-casein degradation (translocation into ClpP), initial rates against FITC-casein concentration", "setting": "[2]", "result": 1.29, "unit": "µM"}
    ]},
    {"substance": "Hsp104WT (from UniProt P31539 1-908)", "values": [
      {"measurement": "pKd", "setting": "[1]", "result": 7.19}
    ]},
    {"substance": "HAPWT (from UniProt P31539 1-908)", "values": [
      {"measurement": "Km of FITC-casein degradation (translocation into ClpP), initial rates against FITC-casein concentration", "setting": "[2]", "result": 2.88, "unit": "µM"}
    ]}
  ]
}
